The values below come from patent US20240270821A1, “GIP/GLP1/GCG TRI-RECEPTOR AGONISTS AND USES THEREOF” (priority 2023, published 2024).

B1: Example 650 (SEQ ID NO: 656) (peptide)
chain: YXQGTXTSDXSIXLDKKAQXXFIEYLAEGGPSSGEPPPEGSEE
modifications: synthetic construct; SITE 2: note = 2-Aminoisobutyric Acid; SITE 6: note = alpha-methyl-2-fluoro-L-phenylalanine; SITE 10: note = 3-(4-Pyridyl)-L-alanine; SITE 13: note = alpha-methyl-leucine; SITE 17: note = Lysine is chemically modified through conjugation of the epsilon-amino group of the Lysine
B2: Example 651 (SEQ ID NO: 657) (peptide)
chain: B1 chain with A27S
modifications: synthetic construct; SITE 2: note = 2-Aminoisobutyric Acid; SITE 6: note = alpha-methyl-2-fluoro-L-phenylalanine; SITE 10: note = 3-(4-Pyridyl)-L-alanine; SITE 13: note = alpha-methyl-leucine; SITE 17: note = Lysine is chemically modified through conjugation of the epsilon-amino group of the Lysine
B3: Example 652 (SEQ ID NO: 658) (peptide)
chain: B1 chain with A27T
modifications: synthetic construct; SITE 2: note = 2-Aminoisobutyric Acid; SITE 6: note = alpha-methyl-2-fluoro-L-phenylalanine; SITE 10: note = 3-(4-Pyridyl)-L-alanine; SITE 13: note = alpha-methyl-leucine; SITE 17: note = Lysine is chemically modified through conjugation of the epsilon-amino group of the Lysine

Residue numbers refer to the chain shown, from its start. Starred links: 1 amine or outer side, 2 acyl side, 3 side chain; linkers in the order of their positions; H or OH if unused. Non-standard residues stand in square brackets, D forms with d. Groups on a side chain read outwards from the residue. No end group written: not given here. *: point of attachment. C20 diacid = O=C(O)CCCCCCCCCCCCCCCCCCC(=O)*; αMePhe(2-F) = C[C@](N)(Cc1ccccc1F)C(=O)O; γGlu = O=C(O)[C@H](CCC(=O)[*:2])N[*:1]; αMeL = CC(C)C[C@](C)(N)C(=O)O; Orn = NCCC[C@H](N)C(=O)O; AEEA = NCCOCCOCC(=O)O; Aib = CC(C)(N)C(=O)O

hGLP-1R, sequence (P43220 24-463): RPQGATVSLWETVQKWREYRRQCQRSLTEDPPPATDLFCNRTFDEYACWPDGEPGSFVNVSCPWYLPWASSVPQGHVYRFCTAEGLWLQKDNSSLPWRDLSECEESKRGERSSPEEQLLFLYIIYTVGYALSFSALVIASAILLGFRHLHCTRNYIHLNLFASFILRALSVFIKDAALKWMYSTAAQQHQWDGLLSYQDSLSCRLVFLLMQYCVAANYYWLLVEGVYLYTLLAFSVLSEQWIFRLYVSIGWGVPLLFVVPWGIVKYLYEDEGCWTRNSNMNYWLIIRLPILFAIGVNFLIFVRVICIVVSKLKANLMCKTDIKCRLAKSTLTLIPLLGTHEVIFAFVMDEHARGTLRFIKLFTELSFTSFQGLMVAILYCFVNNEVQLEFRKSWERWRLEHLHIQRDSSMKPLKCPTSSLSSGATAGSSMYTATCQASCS

The first experiment addresses hGLP-1R (Homo sapiens, UniProt P43220). The experiment can be described thus: cell-based or functional assay.
Consider Y[Aib]QGTFTSDYSI[αMeL]LDKQAAK([AEEA-AEEA-γGlu-C20 diacid])AFVEWLLA[Aib]GPSSGEPPPSEG-NH2 [Example 317], for which the Relative cAMP EC50 was determined as 1.32 nM and the cAMP Rel EC50 (1% HSA) was 234 nM.
On to Y[Aib]QGTFTSDYSI[αMeL]LDKQAAK([AEEA-AEEA-γGlu-C20 diacid])QFVEWLLAGGPSSGEPPPGEG-NH2 [Example 320], for which the Relative cAMP EC50 came to 2.58 nM and the cAMP Rel EC50 (1% HSA) is 328 nM.
In turn, Y[Aib]QGTFTSDYSKLLDKK([AEEA-γGlu-C20 diacid])AQ[Aib]AFVQWLIEGGPSSGEPPPSEG-NH2 [Example 316] displayed a Relative cAMP EC50 of 0.362 nM and a cAMP Rel EC50 (1% HSA) of 78.7 nM.
B1: the Relative cAMP EC50 was 0.649 nM.
Still for that read-out and setting: to B2 belongs 1.02 nM; to B3, 0.426 nM.
For the molecule Y[Aib]QGT[αMePhe(2-F)]TSDYSILLDKAAQK[Orn]FIEYLIEGGPSSGEPPPSEG-NH2 (not fully specified (residue 20)) [Example 306], the Relative cAMP EC50 came to 0.335 nM and the cAMP Rel EC50 (1% HSA) is 126 nM.
The corresponding values for Y[Aib]QGTFTSDYSI[αMeL]LDKQAAK([AEEA-AEEA-γGlu-C20 diacid])QFVNWLLA[Aib]GPSSGEPPPSEG-NH2 [Example 325] are 1.56 nM and 371 nM.
For Y[Aib]QGTFTSDYSI[αMeL]LDKQAAK([AEEA-AEEA-γGlu-C20 diacid])QFIEWLIEGGPSSGEPPPGEG-NH2 [Example 318], the Relative cAMP EC50 was 0.698 nM and the cAMP Rel EC50 (1% HSA) is 111 nM.
Take Y[Aib]QGTFTSDYSI[αMeL]LD[Orn]QAAK([AEEA-AEEA-γGlu-C20 diacid])QFVEWLLA[Aib]GPSSGEPPPSEG-NH2 [Example 328]: the Relative cAMP EC50 was 1.3 nM and the cAMP Rel EC50 (1% HSA) was 462 nM.
For Y[Aib]QGTFTSDYSI[αMeL]LDKQAAK([AEEA-AEEA-γGlu-C20 diacid])QFIEWLIEGGPSSGEPPPGAE-NH2 [Example 319] the same measures were 0.947 nM and 119 nM.

In the next experiment the target is T1, human GIP receptor (human) (UniProt P48546).
T1 sequence (looked up): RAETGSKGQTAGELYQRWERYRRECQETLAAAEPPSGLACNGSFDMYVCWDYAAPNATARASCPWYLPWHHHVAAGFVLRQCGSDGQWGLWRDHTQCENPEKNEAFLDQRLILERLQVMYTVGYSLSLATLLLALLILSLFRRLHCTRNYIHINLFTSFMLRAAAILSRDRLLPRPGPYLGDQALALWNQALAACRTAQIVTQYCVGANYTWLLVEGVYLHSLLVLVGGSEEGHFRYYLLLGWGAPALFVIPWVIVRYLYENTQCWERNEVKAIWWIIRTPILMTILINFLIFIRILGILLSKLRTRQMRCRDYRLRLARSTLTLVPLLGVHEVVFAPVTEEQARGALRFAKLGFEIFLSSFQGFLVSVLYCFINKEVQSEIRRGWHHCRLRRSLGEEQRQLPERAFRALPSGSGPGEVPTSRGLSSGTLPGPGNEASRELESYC
The experiment can be described thus: cell-based or functional assay.
Molecule Y[Aib]QGTFTSDYSI[αMeL]LDKQAAK([AEEA-AEEA-γGlu-C20 diacid])AFVEWLLA[Aib]GPSSGEPPPSEG-NH2 [Example 317] yielded a Relative cAMP EC50 of 0.474 nM and a cAMP Rel EC50 (1% HSA) of 62.8 nM.
Regarding Y[Aib]QGTFTSDYSI[αMeL]LDKQAAK([AEEA-AEEA-γGlu-C20 diacid])QFVEWLLAGGPSSGEPPPGEG-NH2 [Example 320], the Relative cAMP EC50 is 0.274 nM and the cAMP Rel EC50 (1% HSA) was 55.3 nM.
The corresponding values for Y[Aib]QGTFTSDYSKLLDKK([AEEA-γGlu-C20 diacid])AQ[Aib]AFVQWLIEGGPSSGEPPPSEG-NH2 [Example 316] are 0.259 nM and 102 nM.
In turn, B1 had a Relative cAMP EC50 of 0.0814 nM.
On the same count and under the same terms, to B2 belongs 0.112 nM; to B3, 0.0342 nM.
Y[Aib]QGT[αMePhe(2-F)]TSDYSILLDKAAQK[Orn]FIEYLIEGGPSSGEPPPSEG-NH2 (not fully specified (residue 20)) [Example 306]: the Relative cAMP EC50 was determined as 0.142 nM and the cAMP Rel EC50 (1% HSA) came out at 95.3 nM.
For Y[Aib]QGTFTSDYSI[αMeL]LDKQAAK([AEEA-AEEA-γGlu-C20 diacid])QFVNWLLA[Aib]GPSSGEPPPSEG-NH2 [Example 325] the same measures were 0.351 nM and 82.7 nM.
For Y[Aib]QGTFTSDYSI[αMeL]LDKQAAK([AEEA-AEEA-γGlu-C20 diacid])QFIEWLIEGGPSSGEPPPGEG-NH2 [Example 318] the same measures were 0.378 nM and 52.8 nM.
Y[Aib]QGTFTSDYSI[αMeL]LD[Orn]QAAK([AEEA-AEEA-γGlu-C20 diacid])QFVEWLLA[Aib]GPSSGEPPPSEG-NH2 [Example 328] had a Relative cAMP EC50 of 0.544 nM and a cAMP Rel EC50 (1% HSA) of 91.1 nM.
For the molecule Y[Aib]QGTFTSDYSI[αMeL]LDKQAAK([AEEA-AEEA-γGlu-C20 diacid])QFIEWLIEGGPSSGEPPPGAE-NH2 [Example 319], the Relative cAMP EC50 was determined as 0.485 nM and the cAMP Rel EC50 (1% HSA) stood at 60.1 nM.

The next experiment deals with human glucagon receptor (human) (UniProt P47871). The experiment can be described thus: cell-based or functional assay.
human glucagon receptor (human), sequence (P47871 26-477): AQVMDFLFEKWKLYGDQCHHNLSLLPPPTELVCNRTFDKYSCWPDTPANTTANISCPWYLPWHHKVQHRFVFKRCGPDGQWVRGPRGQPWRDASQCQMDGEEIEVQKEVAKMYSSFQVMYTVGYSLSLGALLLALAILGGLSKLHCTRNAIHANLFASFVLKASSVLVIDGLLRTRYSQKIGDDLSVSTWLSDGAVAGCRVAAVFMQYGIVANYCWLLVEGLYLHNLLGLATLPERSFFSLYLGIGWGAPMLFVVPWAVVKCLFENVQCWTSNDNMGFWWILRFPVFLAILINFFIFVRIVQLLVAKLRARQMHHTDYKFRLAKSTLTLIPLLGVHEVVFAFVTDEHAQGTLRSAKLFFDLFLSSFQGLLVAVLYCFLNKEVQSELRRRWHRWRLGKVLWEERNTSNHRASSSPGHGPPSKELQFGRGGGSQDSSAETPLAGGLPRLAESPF
In turn, Y[Aib]QGTFTSDYSI[αMeL]LDKQAAK([AEEA-AEEA-γGlu-C20 diacid])AFVEWLLA[Aib]GPSSGEPPPSEG-NH2 [Example 317] gave a Relative cAMP EC50 of 2.42 nM and a cAMP Rel EC50 (1% HSA) of 1500 nM.
Molecule Y[Aib]QGTFTSDYSI[αMeL]LDKQAAK([AEEA-AEEA-γGlu-C20 diacid])QFVEWLLAGGPSSGEPPPGEG-NH2 [Example 320] registered a Relative cAMP EC50 of 6.87 nM and a cAMP Rel EC50 (1% HSA) of 1170 nM.
The molecule Y[Aib]QGTFTSDYSKLLDKK([AEEA-γGlu-C20 diacid])AQ[Aib]AFVQWLIEGGPSSGEPPPSEG-NH2 [Example 316] came in with a Relative cAMP EC50 of 5.22 nM and a cAMP Rel EC50 (1% HSA) of 2090 nM.
Take B1: the Relative cAMP EC50 stood at 16.2 nM.
As for B2, the Relative cAMP EC50 amounted to 10.7 nM.
Still for that read-out and setting: to B3 belongs 15.3 nM.
Regarding Y[Aib]QGT[αMePhe(2-F)]TSDYSILLDKAAQK[Orn]FIEYLIEGGPSSGEPPPSEG-NH2 (not fully specified (residue 20)) [Example 306], the Relative cAMP EC50 was found to be 5.8 nM and the cAMP Rel EC50 (1% HSA) was 2820 nM.
The corresponding values for Y[Aib]QGTFTSDYSI[αMeL]LDKQAAK([AEEA-AEEA-γGlu-C20 diacid])QFVNWLLA[Aib]GPSSGEPPPSEG-NH2 [Example 325] are 2.43 nM and 774 nM.
For Y[Aib]QGTFTSDYSI[αMeL]LDKQAAK([AEEA-AEEA-γGlu-C20 diacid])QFIEWLIEGGPSSGEPPPGEG-NH2 [Example 318] the same measures were 5.03 nM and 1970 nM.
The molecule Y[Aib]QGTFTSDYSI[αMeL]LD[Orn]QAAK([AEEA-AEEA-γGlu-C20 diacid])QFVEWLLA[Aib]GPSSGEPPPSEG-NH2 [Example 328] came in with a Relative cAMP EC50 of 10.3 nM and a cAMP Rel EC50 (1% HSA) of 2040 nM.
Molecule Y[Aib]QGTFTSDYSI[αMeL]LDKQAAK([AEEA-AEEA-γGlu-C20 diacid])QFIEWLIEGGPSSGEPPPGAE-NH2 [Example 319] gave a Relative cAMP EC50 of 4.81 nM and a cAMP Rel EC50 (1% HSA) of 1650 nM.
